Assay results from patent US20240254227A1 (Alector, published 2024).
Blank lines part the entries; values can stand above or below the binder they belong to.

Columns and labels:
[1] = biological target: T1, huCD300F constitutively expressed on 293 Freestyle (Freestyle HEK) cells (human, UniProt Q8TDQ1 20-290); assay: flow cytometry, stable Freestyle HEK cells
T1 construct: also called huCD300LF; Human CD300F
T1 sequence: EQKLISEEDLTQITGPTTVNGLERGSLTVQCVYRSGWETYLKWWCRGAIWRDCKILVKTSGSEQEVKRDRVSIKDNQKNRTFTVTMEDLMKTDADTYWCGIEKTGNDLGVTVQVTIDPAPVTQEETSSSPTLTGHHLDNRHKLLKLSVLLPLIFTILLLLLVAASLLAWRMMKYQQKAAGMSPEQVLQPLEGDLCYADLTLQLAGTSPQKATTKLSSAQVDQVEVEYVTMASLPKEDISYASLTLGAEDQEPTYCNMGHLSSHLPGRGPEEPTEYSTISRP

[2] = biological target: T2, huCD300LB-DAP12 fusion constitutively expressed on 293 Freestyle (Freestyle HEK) cells (human); assay: flow cytometry, geometric mean (APC-A), FreeStyle HEK cells expressing huCD300LB
T2 construct: also called Human CD300LB-DAP12 chimera
Protocol: Other members of the human CD300 family share sequence homology with human CD300LB. Thus, counter screens against binding of the anti-CD300LB antibodies to huCD300A, huCD300C, huCD300LD, huCD300E, huCD300LF, and huCD300G by stable overexpression in Freestyle HEK cells (generation of which is described above) were performed as follows. Cells were counted and labeled with 200 nM CFSE, 500 nM VioBlue, or a combination of the two to discriminate between CD300LB, Parental cells, and the other CD300 family members. Cells were washed thoroughly with PBS containing 2% fetal bovine serum then resuspended at a total of 240,000 cells per well. Hybridoma supernatants (100 L) or purified antibodies at various concentrations were added and incubated for one hour before the cells were washed twice again and stained with an APC-labeled anti-human or anti-mouse secondary antibody. Cells were then analyzed using a BD FACSCanto II. Anti-CD300LB antibodies were analyzed for specific binding to human CD300LB by FlowJo software by gating on live cells, then the APC geometric mean fluorescence intensity (gMFI) calculated for each labeled population. The results are shown in […]

[3] = biological target: T3, human CD300LB on primary human macrophages (human, UniProt A8K4G0 18-201); assay: flow cytometry, primary human macrophages donor 1275, 10 ug/mL antibody, isotype control subtracted
T3 sequence: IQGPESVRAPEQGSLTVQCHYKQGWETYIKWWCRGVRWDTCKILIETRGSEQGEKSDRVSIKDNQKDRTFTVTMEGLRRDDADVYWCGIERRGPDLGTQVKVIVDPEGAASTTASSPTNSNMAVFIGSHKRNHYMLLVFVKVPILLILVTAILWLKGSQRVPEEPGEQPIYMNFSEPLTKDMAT
Protocol: (§1) Human monocytes from various donors were isolated from whole blood using RosetteSep Human Monocyte Enrichment Cocktail (Stemcell technologies) and Ficoll centrifugation per manufacturer protocols. After lysing red blood cells with ACK lysing buffer, monocytes were resuspended in complete media (RPMI, 10% FBS, Pen/Strep, L-glutamine, HEPES, non-essential amino acid, Sodium pyruvate). To obtain macrophages from these isolated monocytes, 100 ng/ml human M-CSF and 8% v/v human serum were added to the cells for 5-7 days. Cells were counted on the day of the experiment and plated at 100,000 cells per well in a round-bottom 96 well plate. Cells were incubated with TruStain Fc block and 10 μg/mL antibody for 1 hour on ice before washing with 250 μL ice cold PBS twice. Cells were then incubated with the appropriate APC-conjugated secondary antibodies for 20 minutes in the dark on ice. Finally, cells were washed twice with ice cold FACS buffer and then resuspended in 100 μL FACS buffer containing 1% propidium iodide. Samples were immediately analyzed using a BD FACSCanto flow cytometer. The gMFI was calculated using FlowJo software minus the gMFI of the appropriate isotype control.

[4] = biological target: T4, human CD300LB on primary human monocytes (human, UniProt A8K4G0 18-201); assay: flow cytometry, primary human monocytes donor 1284, 10 ug/mL antibody, isotype control subtracted
T4 construct: Endogenous protein on primary cells; that the target is CD300LB is inferred from the antibodies being anti-CD300LB antibodies; also called Monocyte donor 1281; Monocyte donor 1282
T4 sequence: T3 sequence
Protocol: as §1

[5] = biological target: T4, human CD300LB on primary human monocytes; assay: flow cytometry, primary human monocytes donor 1281, 10 ug/mL antibody, isotype control subtracted
Protocol: as §1

[6] = biological target: T3, human CD300LB on primary human …; assay: flow cytometry, primary human macrophages donor 1278, 10 ug/mL antibody, isotype control subtracted
Protocol: as §1

- gMFI [1]: -26 gMFI
- binding result [2]: no binding
B1: anti-CD300LB antibody CD-01 (antibody, V domains shown)
VH: RVQLQQSGAELVRPGASVTLSCKASGFTFTDFEMHWVKKTPVHGLEWIGAIDPESGNTAYNQKFRGKATLTADKSSSTAYMELRYLTSEDSAVYYCTPLISGADYWGQGTTLTVSS
VL: DVVMTQSPLSLPVSLGDQASISCRSSQSLVHSDGNTYLYWYLQKPGQSPKLLIYKVSNRFSGVPDRFSGSGSGTDFTFKISRVGAEDLGVYFCSQSTHVPWTFGGGTKLEII

- gMFI [3]: 2700 gMFI
- binding result [1]: no binding
- gMFI [1]: 112 gMFI
- EC50 (read off the curve) [2]: ~20 nM
- gMFI [4]: -189 gMFI
- gMFI [5]: 43 gMFI
- gMFI [6]: 211000 gMFI
B2: anti-CD300LB antibody CD-07 (antibody, V domains shown)
VH: QVQLVQSGAEVKKPGASVKVSCKASGYTFTNYRMHWVRQAPGQGLEWMGWINPNSGGTIYAQKFQGRVTMTRDTSTSTVYMELSSLRSEDTAVYYCARDLDYWGQGTLVTVSS
VL: DIQMTQSPSSLSASVGDRVTITCQASQDISNYLNWYQQKPGKAPKLLIYGASSLQSGVPSRFSGSGSGTDFTLTISSLQPEDFATYYCQQSYSTPWTFGPGTKVEIK

- gMFI [1]: -93 gMFI
- binding result [2]: no binding
B3: anti-CD300LB antibody CD-02 (antibody, V domains shown)
VH: QVQLQQPGAELVRPGSSVKLSCQASGYTFTNYWMHWVRQRPIQGLEWIGNIDPSDSETHYNQKFKDRATLTVDKSSSTAYMQLSSLTSEDSAVYYCARSGVYDDEGGDYWGQGTTLTVSS
VL: ENVLTQSPAIMSASPGEKVTMTCSASSSVSYIHWYQQKSSTSPKLWIYDTSKLASGVPGRFSGSGSGNSYSLTISSMETEDVATYYCFQGSGYPLTFGAGTKLELK
